Experimental data taken from patent US10245299B2, “Autoassembling peptides for the treatment of pulmonary bulla” (3-D MATRIX, LTD., priority 2014, dated 2019).

Assays:
[1] = test system: pulmonary bulla; assay: Filling of pulmonary bulla cavity through connecting bronchioles before collapse; settings: 1.0% RADA16 with 0.00585% indigo carmine
Description: A method for pulmonary bullae treatment using peptide hydrogel systems distinct from the method discussed in Example 19 was tested. Here, the pulmonary bullae are generally filled prior to collapse.
The pulmonary bulla cavity was filled with 1.0% RADA16 through the connecting bronchioles using an endotracheal tube inserted through the primary bronchus and into the lung. The bulla was then collapsed to remove the pocket of trapped air. 1.0% RADA16 mixed with 0.00585% indigo carmine was used here for visualization of the hydrogel spreading into the bullae cavity.

[2] = test system: pulmonary bullae; assay: Burst pressure of hydrogels as air sealants on collapsed pulmonary bullae of swine lungs
From the text: Swine lungs were obtained from freshly euthanized pigs. An endotracheal tube was inserted through the trachea and primary bronchus into the lung of interest. Pressure was supplied to the lungs with the use of a manual endotracheal intubation pump. The trachea was tied off to prevent air leakage around the tube. The other primary bronchus of the other lung was clamped to direct all airflow to the lung of interest. A manometer was used to measure the pressure of air directed into the lungs to induce expansion.
The self-assembling peptide hydrogels were comprised of Ac-RADARADARADARADA-NH2 (SEQ ID NO: 1) (i.e. RADA16) and Ac-IEIKIEIKIEIKI-NH2 (SEQ ID NO: 2) (i.e. IEIK13) with RADA16 used alone or mixed with calcium chloride. If alone, the peptides were reconstituted in deionized water. If, however the peptides were reconstituted with a salt solution, the peptides were reconstituted first in deionized water, and subsequently, a 2× solution of calcium chloride at a previously decided concentration which was mixed in at a 1:1 ratio.
Pulmonary bullae, as depicted in FIG. 25, are naturally occurring weak areas of the pleura. Prior to application of the hydrogels, the bullae were identified and collapsed using a 16 G needle. […]

[3] = Rheology of peptides mixed with cation/anion solutions; type: physicochemical
Description: In a rheological comparison of 2.5% RADA16 and 2.5% RADA16+NaCl, KCl, and CaCl2, solutions of 0.5% RADA16 mixed with 0.005, 0.05, 0.125, 0.25, 0.5, and 1 M NaCl, KCl, and CaCl2 were prepared. The anion, chloride (Cl−), was kept the same to observe the effect of the cations, sodium (Na+), potassium (K+), and calcium (Ca2+). FIG. 21 provides a basic understanding of how varying the cations of a salt solution effects the viscoelastic properties and the stiffness of self-assembling peptides. […] This should be because Ca has […] higher ionic strength than Na and K at the same molar concentrations. Therefore, influence of salts on the peptide solution is more related to their ionic strength rather than their molar concentration, as shown in FIGS. 17-18 and Table 2a-c. In some embodiments, there is a correlation between the properties of the peptide solutions with salts based on the concentration of the salts.
Rheological measurements of stiffness of 2.5% RADA16 and 2.5% RADA16+0.25 M CaCl2 was evaluated.
Rheological measurements of reversibility of 0.5% RADA16 solution with +0.125, 0.25, and 0.5 M CaCl2 were evaluated. Solutions of 0.5% RADA16 mixed with 0.125, 0.25, and 0.5 M CaCl2 were prepared. The structure of the self-assembled peptide solution were disrupted thoroughly by application of mechanical stress through vortexing and sonication. The mixtures were placed at room temperature for 48 hours to allow self-assembly to take place. […] FIG. 23a presents raw rheological data of the peptide solution with salts and the perturbed peptide solution while FIG. 23b provides a comparison of stiffness of the control peptide solution and the perturbed peptide solution.
Rheological measurements of gelation kinetics of 0.5% RADA16+NaCl, KCl, and CaCl2 were evaluated. A solution of 0.5% RADA16 was prepared and gelation kinetics were observed by treatment with several cations (e.g. Na, […], K) and anions (e.g. Cl, CO3, PO4, SO4). It was determined how long it will take for the peptide mixtures to gel and how to control that gelation time by varying the cation/anion type and concentration. […] In vivo and in vitro qualitative experiments and the resulting observations were supportive of these conclusions.
The two gels were: (1) a combination of the self-assembling peptide with a well-known cation/anion solution, Ringer's Solution (pH 5.3), used in the medical field and (2) a combination of the self-assembling peptide with a well-known contrast agent, indigo carmine, which is a dye solution containing sulfate (anion) and sodium (cation) ions. Indigo carmine contains indigoindisulfonate sodium (C16H8N2Na2O8S2), water, and sodium citrate […] for pH adjustment. Using indigo carmine powder, a 1% solution was prepared for use in experimentation. This corresponds to 10 mg/1 ml of water. The concentration of indigo carmine solution used in experimentation was 0.00585% in water.
The rheological comparisons of these mixtures and the visualization of the gels can be observed in FIG. 24a-24c. […] The concentration of the contrast agent or cation/anion mixture and peptide hydrogel that were mixed were based on an understanding of using cations and anions as described herein. […] FIG. 24C presents a comparison of stiffness of RADA16 and RADA16 mixed with Ringer's Solution.

[4] = Rheological properties (storage moduli) of 1% peptides before and after DMEM treatment for 2 minutes; type: physicochemical; settings: peptides 1%, compared between peptides
Description: The effects of Dulbecco's modified Eagle's medium (DMEM) (pH 7.4) on the rheological properties of IEIK13, KLD12, and PuraMatrix® were evaluated on a rheometer (AR500, TA Instruments) with 40 mm plates. DMEM is generally a cell culture medium that contains 6.4 g/L of NaCl, 3.4 g/L NaHCO3 (sodium bicarbonate), minor amounts of other salts, various amino acids, and 4.5 g/L of glucose. The pH level of DMEM is generally 7.2±0.2 and the osmolality is 335±30 mOsm/Kg H2O; both measurements are close to human physiological fluids such as blood.
Peptide solutions (1%) were kept at 4° C. for at least 48 hours before testing. To perform the experiment, 1 mL of peptide solution was gently pipetted and placed on the plate of the rheometer. 2 mL of DMEM solution was gently added around the peptide solution. The peptide solution was treated with DMEM for two minutes, then the media was removed, and the plates were placed at a measuring geometry gap at around 450 μm. Measurements were performed at 37° C. after 2 min of relaxation time. Frequency tests were performed from 1 rad/s to 100 rad/s at 1 Pa of oscillation stress.
The rheological properties of the peptides (1%) were compared before and after DMEM treatment for 2 minutes, as shown in FIG. 1A. […]

Substance	filling of bullae cavity through the connecting bronchioles [1]	burst pressure compared among formulations ([2]; 2.5% RADA16 mixed with 0.250 M CaCl2)	filling of collapsed bullae cavity, histological analysis ([2]; 2.5% RADA16 with CaCl2)	gelation kinetics by cation/anion type ([3]; 0.5% RADA16)	reversibility after perturbation ([3]; 0.5% RADA16 with CaCl2 within the optimal salt concentration range, vortexing and sonication, 48 hours at room temperature)	stiffness with added CaCl2 ([3]; 2.5% RADA16 vs 2.5% RADA16 with CaCl2)	effect of cations on stiffness ([3]; RADA16 mixed with 0.005-1 M NaCl, KCl, and CaCl2, same molar concentrations)	mechanical properties of mixed gel ([3]; RADA16 mixed with Ringer's Solution (pH 5.3))	mechanical properties of mixed gel ([3]; 1.5% IEIK13 mixed with 0.00585% indigo carmine)	fold increase of storage modulus after DMEM treatment [4]
Arg-Ala-Asp-Ala-Arg-Ala-Asp-Ala-Arg-Ala-Asp-Ala-Arg-Ala-Asp-Ala [PuraMatrix®]	completely fill the bullae cavity	best burst pressure	entirely filled the pulmonary bullae cavity	Chlorine showed the quickest gelation and sulfate showed the slowest gelation	remained reversible	noticeable increase in stiffness	Ca provided the best enhancement of stiffness	A stiffer gel with faster gelation kinetics that maintains reversibility		
Ile-Glu-Ile-Lys-Ile-Glu-Ile-Lys-Ile-Glu-Ile-Lys-Ile [IEIK13]									maintains stiffness, reversibility, and gelation kinetics	lower-fold increase of storage modulus than weaker peptide solutions
